In patent US20260015399A1 (Boehringer Ingelheim, published 2026):
*1 amine or outer side, *2 acyl side, *3 side chain or, on linkers, in order; H or OH if unused. Side-chain parts run from the residue outwards. The star is where a group is joined. C18 diacid = O=C(O)CCCCCCCCCCCCCCCCC(=O)*; γGlu = O=C(O)[C@H](CCC(=O)[*:2])N[*:1]; Isovaleryl = CC(C)CC(=O)*; Ahx = NCCCCCC(=O)O

T1: human NPY2 receptor (human, UniProt P49146 1-381)
T1 construct: whole, on cells; also called hNPY2-R; hNPY2R
T1 sequence (looked up): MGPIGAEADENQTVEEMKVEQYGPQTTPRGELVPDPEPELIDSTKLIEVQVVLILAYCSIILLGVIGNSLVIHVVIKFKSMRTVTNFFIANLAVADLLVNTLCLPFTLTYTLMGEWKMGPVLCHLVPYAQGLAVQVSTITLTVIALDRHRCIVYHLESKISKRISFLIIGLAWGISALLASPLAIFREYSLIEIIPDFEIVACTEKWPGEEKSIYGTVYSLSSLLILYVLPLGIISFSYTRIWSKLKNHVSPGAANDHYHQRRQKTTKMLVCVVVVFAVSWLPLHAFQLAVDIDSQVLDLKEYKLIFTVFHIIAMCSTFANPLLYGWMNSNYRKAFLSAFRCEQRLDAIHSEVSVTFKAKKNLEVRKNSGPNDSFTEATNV

B1: Compound 29 (peptide)
peptide: Isovaleryl-APEK([Ahx-γGlu-C18 diacid])PEADSSPEELQRYYVSLRHYYNWLTRQRY-NH2
SMILES: CC(C)CC(=O)N[C@@H](C)C(=O)N1CCC[C@H]1C(=O)N[C@@H](CCC(=O)O)C(=O)N[C@@H](CCCCNC(=O)CCCCCNC(=O)CC[C@H](NC(=O)CCCCCCCCCCCCCCCCC(=O)O)C(=O)O)C(=O)N1CCC[C@H]1C(=O)N[C@@H](CCC(=O)O)C(=O)N[C@@H](C)C(=O)N[C@@H](CC(=O)O)C(=O)N[C@@H](CO)C(=O)N[C@@H](CO)C(=O)N1CCC[C@H]1C(=O)N[C@@H](CCC(=O)O)C(=O)N[C@@H](CCC(=O)O)C(=O)N[C@@H](CC(C)C)C(=O)N[C@@H](CCC(N)=O)C(=O)N[C@@H](CCCNC(=N)N)C(=O)N[C@@H](Cc1ccc(O)cc1)C(=O)N[C@@H](Cc1ccc(O)cc1)C(=O)N[C@H](C(=O)N[C@@H](CO)C(=O)N[C@@H](CC(C)C)C(=O)N[C@@H](CCCNC(=N)N)C(=O)N[C@@H](Cc1c[nH]cn1)C(=O)N[C@@H](Cc1ccc(O)cc1)C(=O)N[C@@H](Cc1ccc(O)cc1)C(=O)N[C@@H](CC(N)=O)C(=O)N[C@@H](Cc1c[nH]c2ccccc12)C(=O)N[C@@H](CC(C)C)C(=O)N[C@H](C(=O)N[C@@H](CCCNC(=N)N)C(=O)N[C@@H](CCC(N)=O)C(=O)N[C@@H](CCCNC(=N)N)C(=O)N[C@@H](Cc1ccc(O)cc1)C(N)=O)[C@@H](C)O)C(C)C
B2: Compound 31 (peptide)
peptide: Isovaleryl-APEK([Ahx-γGlu-C18 diacid])PEEDATPEELQPYYVSLRHYYNWLTRQRY-NH2
SMILES: CC(C)CC(=O)N[C@@H](C)C(=O)N1CCC[C@H]1C(=O)N[C@@H](CCC(=O)O)C(=O)N[C@@H](CCCCNC(=O)CCCCCNC(=O)CC[C@H](NC(=O)CCCCCCCCCCCCCCCCC(=O)O)C(=O)O)C(=O)N1CCC[C@H]1C(=O)N[C@@H](CCC(=O)O)C(=O)N[C@@H](CCC(=O)O)C(=O)N[C@@H](CC(=O)O)C(=O)N[C@@H](C)C(=O)N[C@H](C(=O)N1CCC[C@H]1C(=O)N[C@@H](CCC(=O)O)C(=O)N[C@@H](CCC(=O)O)C(=O)N[C@@H](CC(C)C)C(=O)N[C@@H](CCC(N)=O)C(=O)N1CCC[C@H]1C(=O)N[C@@H](Cc1ccc(O)cc1)C(=O)N[C@@H](Cc1ccc(O)cc1)C(=O)N[C@H](C(=O)N[C@@H](CO)C(=O)N[C@@H](CC(C)C)C(=O)N[C@@H](CCCNC(=N)N)C(=O)N[C@@H](Cc1c[nH]cn1)C(=O)N[C@@H](Cc1ccc(O)cc1)C(=O)N[C@@H](Cc1ccc(O)cc1)C(=O)N[C@@H](CC(N)=O)C(=O)N[C@@H](Cc1c[nH]c2ccccc12)C(=O)N[C@@H](CC(C)C)C(=O)N[C@H](C(=O)N[C@@H](CCCNC(=N)N)C(=O)N[C@@H](CCC(N)=O)C(=O)N[C@@H](CCCNC(=N)N)C(=O)N[C@@H](Cc1ccc(O)cc1)C(N)=O)[C@@H](C)O)C(C)C)[C@@H](C)O
B3: Compound 32 (peptide)
peptide: Isovaleryl-APAK([Ahx-γGlu-C18 diacid])PEEDASPEELQRYYVSLRHQYNWLTRQRY-NH2
SMILES: CC(C)CC(=O)N[C@@H](C)C(=O)N1CCC[C@H]1C(=O)N[C@@H](C)C(=O)N[C@@H](CCCCNC(=O)CCCCCNC(=O)CC[C@H](NC(=O)CCCCCCCCCCCCCCCCC(=O)O)C(=O)O)C(=O)N1CCC[C@H]1C(=O)N[C@@H](CCC(=O)O)C(=O)N[C@@H](CCC(=O)O)C(=O)N[C@@H](CC(=O)O)C(=O)N[C@@H](C)C(=O)N[C@@H](CO)C(=O)N1CCC[C@H]1C(=O)N[C@@H](CCC(=O)O)C(=O)N[C@@H](CCC(=O)O)C(=O)N[C@@H](CC(C)C)C(=O)N[C@@H](CCC(N)=O)C(=O)N[C@@H](CCCNC(=N)N)C(=O)N[C@@H](Cc1ccc(O)cc1)C(=O)N[C@@H](Cc1ccc(O)cc1)C(=O)N[C@H](C(=O)N[C@@H](CO)C(=O)N[C@@H](CC(C)C)C(=O)N[C@@H](CCCNC(=N)N)C(=O)N[C@@H](Cc1c[nH]cn1)C(=O)N[C@@H](CCC(N)=O)C(=O)N[C@@H](Cc1ccc(O)cc1)C(=O)N[C@@H](CC(N)=O)C(=O)N[C@@H](Cc1c[nH]c2ccccc12)C(=O)N[C@@H](CC(C)C)C(=O)N[C@H](C(=O)N[C@@H](CCCNC(=N)N)C(=O)N[C@@H](CCC(N)=O)C(=O)N[C@@H](CCCNC(=N)N)C(=O)N[C@@H](Cc1ccc(O)cc1)C(N)=O)[C@@H](C)O)C(C)C
B4: Compound 33 (peptide)
peptide: Isovaleryl-APAK([Ahx-γGlu-C18 diacid])PEEDAEPEELQRYYISLRHYYNWLTRQRY-NH2
SMILES: CC[C@H](C)[C@H](NC(=O)[C@H](Cc1ccc(O)cc1)NC(=O)[C@H](Cc1ccc(O)cc1)NC(=O)[C@H](CCCNC(=N)N)NC(=O)[C@H](CCC(N)=O)NC(=O)[C@H](CC(C)C)NC(=O)[C@H](CCC(=O)O)NC(=O)[C@H](CCC(=O)O)NC(=O)[C@@H]1CCCN1C(=O)[C@H](CCC(=O)O)NC(=O)[C@H](C)NC(=O)[C@H](CC(=O)O)NC(=O)[C@H](CCC(=O)O)NC(=O)[C@H](CCC(=O)O)NC(=O)[C@@H]1CCCN1C(=O)[C@H](CCCCNC(=O)CCCCCNC(=O)CC[C@H](NC(=O)CCCCCCCCCCCCCCCCC(=O)O)C(=O)O)NC(=O)[C@H](C)NC(=O)[C@@H]1CCCN1C(=O)[C@H](C)NC(=O)CC(C)C)C(=O)N[C@@H](CO)C(=O)N[C@@H](CC(C)C)C(=O)N[C@@H](CCCNC(=N)N)C(=O)N[C@@H](Cc1c[nH]cn1)C(=O)N[C@@H](Cc1ccc(O)cc1)C(=O)N[C@@H](Cc1ccc(O)cc1)C(=O)N[C@@H](CC(N)=O)C(=O)N[C@@H](Cc1c[nH]c2ccccc12)C(=O)N[C@@H](CC(C)C)C(=O)N[C@H](C(=O)N[C@@H](CCCNC(=N)N)C(=O)N[C@@H](CCC(N)=O)C(=O)N[C@@H](CCCNC(=N)N)C(=O)N[C@@H](Cc1ccc(O)cc1)C(N)=O)[C@@H](C)O
B5: Compound 34 (peptide)
peptide: Isovaleryl-APEK([Ahx-γGlu-C18 diacid])PEEDASAEELQQYYVSLRHYYNWLTRQRY-NH2
SMILES: CC(C)CC(=O)N[C@@H](C)C(=O)N1CCC[C@H]1C(=O)N[C@@H](CCC(=O)O)C(=O)N[C@@H](CCCCNC(=O)CCCCCNC(=O)CC[C@H](NC(=O)CCCCCCCCCCCCCCCCC(=O)O)C(=O)O)C(=O)N1CCC[C@H]1C(=O)N[C@@H](CCC(=O)O)C(=O)N[C@@H](CCC(=O)O)C(=O)N[C@@H](CC(=O)O)C(=O)N[C@@H](C)C(=O)N[C@@H](CO)C(=O)N[C@@H](C)C(=O)N[C@@H](CCC(=O)O)C(=O)N[C@@H](CCC(=O)O)C(=O)N[C@@H](CC(C)C)C(=O)N[C@@H](CCC(N)=O)C(=O)N[C@@H](CCC(N)=O)C(=O)N[C@@H](Cc1ccc(O)cc1)C(=O)N[C@@H](Cc1ccc(O)cc1)C(=O)N[C@H](C(=O)N[C@@H](CO)C(=O)N[C@@H](CC(C)C)C(=O)N[C@@H](CCCNC(=N)N)C(=O)N[C@@H](Cc1c[nH]cn1)C(=O)N[C@@H](Cc1ccc(O)cc1)C(=O)N[C@@H](Cc1ccc(O)cc1)C(=O)N[C@@H](CC(N)=O)C(=O)N[C@@H](Cc1c[nH]c2ccccc12)C(=O)N[C@@H](CC(C)C)C(=O)N[C@H](C(=O)N[C@@H](CCCNC(=N)N)C(=O)N[C@@H](CCC(N)=O)C(=O)N[C@@H](CCCNC(=N)N)C(=O)N[C@@H](Cc1ccc(O)cc1)C(N)=O)[C@@H](C)O)C(C)C
B6: Compound 30 (peptide)
peptide: Isovaleryl-APEK([Ahx-γGlu-C18 diacid])PPADATPEELQRYYVSLRHYYNWLTRQRY-NH2
SMILES: CC(C)CC(=O)N[C@@H](C)C(=O)N1CCC[C@H]1C(=O)N[C@@H](CCC(=O)O)C(=O)N[C@@H](CCCCNC(=O)CCCCCNC(=O)CC[C@H](NC(=O)CCCCCCCCCCCCCCCCC(=O)O)C(=O)O)C(=O)N1CCC[C@H]1C(=O)N1CCC[C@H]1C(=O)N[C@@H](C)C(=O)N[C@@H](CC(=O)O)C(=O)N[C@@H](C)C(=O)N[C@H](C(=O)N1CCC[C@H]1C(=O)N[C@@H](CCC(=O)O)C(=O)N[C@@H](CCC(=O)O)C(=O)N[C@@H](CC(C)C)C(=O)N[C@@H](CCC(N)=O)C(=O)N[C@@H](CCCNC(=N)N)C(=O)N[C@@H](Cc1ccc(O)cc1)C(=O)N[C@@H](Cc1ccc(O)cc1)C(=O)N[C@H](C(=O)N[C@@H](CO)C(=O)N[C@@H](CC(C)C)C(=O)N[C@@H](CCCNC(=N)N)C(=O)N[C@@H](Cc1c[nH]cn1)C(=O)N[C@@H](Cc1ccc(O)cc1)C(=O)N[C@@H](Cc1ccc(O)cc1)C(=O)N[C@@H](CC(N)=O)C(=O)N[C@@H](Cc1c[nH]c2ccccc12)C(=O)N[C@@H](CC(C)C)C(=O)N[C@H](C(=O)N[C@@H](CCCNC(=N)N)C(=O)N[C@@H](CCC(N)=O)C(=O)N[C@@H](CCCNC(=N)N)C(=O)N[C@@H](Cc1ccc(O)cc1)C(N)=O)[C@@H](C)O)C(C)C)[C@@H](C)O

Target: T1, human NPY2 receptor
Experiment: RLB: displacement of 125I-PYY(1-36) from hNPY2R membranes

Binder	Ki [nM]
B1	1.36
B2	34.7
B3	13.6
B4	2.53
B5	3.53
B6	0.3
